Assay results published in patent publication US20140371080.

Experiments:
[1] = system: EGFP (Aequorea victoria (engineered)?); conditions: CITED Shui et al. 2012; p76 states 5 and 15 nM by ITC and EMSA respectively; cited from earlier work
[2] = biological target: EGFP-mOrange fusion (Aequorea victoria / Discosoma sp. (engineered)?) (UniProt P42212); conditions: fluorescence imaging of halted RNA clusters on Illumina GAIIx; 1xPBS, 5 mM MgCl2, 0.01% Tween-20, room temp; published 5.1 nM

GFP aptamer (canonical, GFPapt)
Kd [1]: 5.1 nM
Kd [2]: 6 nM
